{
  "source": "paper PMC3689434",
  "about": "(Biochemistry, 2013)",
  "proteins": {"B1": {"name": "M. smegmatis PNPase-(1-591) lacking the KH and S1 domains (domain or fragment, Mycobacterium smegmatis, UniProt A0QVQ5 1-591, looked up)", "chain": "MSVVELEDGVYESTAVIDNGSFGTRTIRFETGRLAQQAAGSAVAYLDDETMLLSATTASKNPKDHFDFFPLTVDVEERMYAAGRIPGSFFRREGRPSTDAILTCRLIDRPLRPSFVDGLRNEIQVVVTVMSLDPKDLYDVLAINAASMSTQLAGLPFSGPVGGARIALIDGTWVAFPTVEQLERAVFDMVVAGRIVGDGDSADVAIMMVEAEATENVVELVAGGAQAPTEAVVAEGLEAAKPFIKALCAAQQELADRAAKPAGEYPVFPDYEADVYDAVASVATEALAEALTIAGKTERNDRTDEIKVEVLERLAEPYAGREKEIGAAFRSLTKKLVRQRILTDHFRIDGRGITDIRALSAEVAVIPRAHGSALFERGETQILGVTTLDMIKMAQQIDSLGPENTKRYMHHYNFPPYSTGETGRVGSPKRREIGHGALAERALVPVLPSIEEFPYAIRQVSEALGSNGSTSMGSVCASTLALLNAGVPLKAPVAGIAMGLVSDDVDVDGKVEKRYVALTDILGAEDAFGDMDFKVAGTKDFVTALQLDTKLDGIPSQVLAGALSQAKDARLTILDVMAEAIDRPDEMSPYA"}, "B2": {"name": "M. smegmatis PNPase-(1-656) lacking the S1 domain (domain or fragment, Mycobacterium smegmatis, UniProt A0QVQ5 1-656, looked up)", "chain": "MSVVELEDGVYESTAVIDNGSFGTRTIRFETGRLAQQAAGSAVAYLDDETMLLSATTASKNPKDHFDFFPLTVDVEERMYAAGRIPGSFFRREGRPSTDAILTCRLIDRPLRPSFVDGLRNEIQVVVTVMSLDPKDLYDVLAINAASMSTQLAGLPFSGPVGGARIALIDGTWVAFPTVEQLERAVFDMVVAGRIVGDGDSADVAIMMVEAEATENVVELVAGGAQAPTEAVVAEGLEAAKPFIKALCAAQQELADRAAKPAGEYPVFPDYEADVYDAVASVATEALAEALTIAGKTERNDRTDEIKVEVLERLAEPYAGREKEIGAAFRSLTKKLVRQRILTDHFRIDGRGITDIRALSAEVAVIPRAHGSALFERGETQILGVTTLDMIKMAQQIDSLGPENTKRYMHHYNFPPYSTGETGRVGSPKRREIGHGALAERALVPVLPSIEEFPYAIRQVSEALGSNGSTSMGSVCASTLALLNAGVPLKAPVAGIAMGLVSDDVDVDGKVEKRYVALTDILGAEDAFGDMDFKVAGTKDFVTALQLDTKLDGIPSQVLAGALSQAKDARLTILDVMAEAIDRPDEMSPYAPRITTIKVPVDKIGEVIGPKGKMINSITEETGAQISIEDDGTVFVGAADGLSAQAAIDKINAIAN"}, "B3": {"name": "full-length Mycobacterium smegmatis polynucleotide phosphorylase (PNPase) (enzyme, UniProt A0QVQ5 1-763, looked up)", "chain": "MSVVELEDGVYESTAVIDNGSFGTRTIRFETGRLAQQAAGSAVAYLDDETMLLSATTASKNPKDHFDFFPLTVDVEERMYAAGRIPGSFFRREGRPSTDAILTCRLIDRPLRPSFVDGLRNEIQVVVTVMSLDPKDLYDVLAINAASMSTQLAGLPFSGPVGGARIALIDGTWVAFPTVEQLERAVFDMVVAGRIVGDGDSADVAIMMVEAEATENVVELVAGGAQAPTEAVVAEGLEAAKPFIKALCAAQQELADRAAKPAGEYPVFPDYEADVYDAVASVATEALAEALTIAGKTERNDRTDEIKVEVLERLAEPYAGREKEIGAAFRSLTKKLVRQRILTDHFRIDGRGITDIRALSAEVAVIPRAHGSALFERGETQILGVTTLDMIKMAQQIDSLGPENTKRYMHHYNFPPYSTGETGRVGSPKRREIGHGALAERALVPVLPSIEEFPYAIRQVSEALGSNGSTSMGSVCASTLALLNAGVPLKAPVAGIAMGLVSDDVDVDGKVEKRYVALTDILGAEDAFGDMDFKVAGTKDFVTALQLDTKLDGIPSQVLAGALSQAKDARLTILDVMAEAIDRPDEMSPYAPRITTIKVPVDKIGEVIGPKGKMINSITEETGAQISIEDDGTVFVGAADGLSAQAAIDKINAIANPQLPKVGERFLGTVVKTTDFGAFVSLLPGRDGLVHISKLGKGKRIAKVEDVVKVGDKLRVEIADIDNRGKISLVLVAEESAESAESAGDKGAEKAEGAAADVTPAEA"}},
  "key": {"[1]": {"biological_target": "the molecule itself", "experiment": "zonal velocity sedimentation in a glycerol gradient"}, "[2]": {"biological_target": "the molecule itself", "experiment": "zonal velocity sedimentation in a glycerol gradient", "remark": "listed apart in the source"}},
  "note": "Like-named read-outs stand apart in the source and are kept apart here.",
  "data": [
    {"protein": "B1", "values": [
      {"measurement": "binding result", "setting": "[1]", "value": "binds"}
    ]},
    {"protein": "B2", "values": [
      {"measurement": "stoichiometry N", "setting": "[1]", "value": "1 to 3"}
    ]},
    {"protein": "B3", "values": [
      {"measurement": "stoichiometry N", "setting": "[2]", "value": 3}
    ]}
  ]
}
